US20070136889A1 (CROPDESIGN N V, published 2007)

Tests used:
[1] = biological target: T1, GAL4 DNA-binding domain only (plasmid pGBT9) (UniProt P04386 1-147); assay: yeast two-hybrid, his3 reporter, control with empty pGBT9
T1 construct: Negative control of the two-hybrid assay; also called empty pGBT9 vector
Experimental: The need for this C-terminal domain for the interaction with CDC2At was assayed using the two-hybrid system. A gene encoding a truncated CKS1At protein was created by mutating the Tyr73 codon to a stop codon, thereby deleting the last 15 amino acids. Subsequently, this mutated gene was cloned in frame with the GAL4 activation domain, resulting in the pGADCDSQ plasmid. This vector was introduced into the HF7c yeast reporter strain, together with pGBTCDC2A or the empty pGBT9 vector. […] Therefore, this part of the CKS1At protein might be involved in the interaction with other proteins or may improve the stability of the CDK-CKS1At interaction.

CDC2aAt protein = biological target: T2, CDC2aAt protein (Arabidopsis thaliana, UniProt P24100 1-294); assay: co-immunoprecipitation with the CKS1At antibody from extracts of G1/S cells, blot probed with the CDC2aAt antibody
T2 construct: Endogenous protein in extracts of partially synchronized Arabidopsis cell suspensions
Experimental: Arabidopsis thaliana cell suspensions were partially synchronized by the addition of aphidicolin to freshly diluted cell suspension cells. After 24 hours the drug was washed away and cells were cultivated in new medium. Samples were collected at several time points and partly used for nuclei preparation, partly for protein extraction. […] The CKS1At containing complexes were precipitated with the use of a CKS1At specific antibody (see example 9 of this application). These complexes were resolved on a SDS PAGE gel and immunoblotted. The presence of CDC2aAt as a component of the immuno-precipitated complexes was verified by probing this blot with a CDC2aAt specific antibody. This antibody detected a specific band of the correct molecular size in the extracts of the G1/S cells.

[2] = biological target: T3, GAL4 DNA-binding domain-CDC2bAt fusion protein encoded by pGBTCDC2B (Arabidopsis thaliana, UniProt P04386 1-147; P25859 1-309); assay: yeast two-hybrid, his3 reporter
T3 construct: Two-hybrid bait
Experimental: The recently published structure of the human CDK2 protein in complex with the human CKS1At homologue CKSHs1 helped to identify the amino-acids in the CKS/SUC1 proteins important for interaction with CDKs. Based upon this information the E61 residue of CKS1At was mutated into Q61 by PCR. The consequences of this mutation upon the binding affinity for CDC2aAt and CDC2bAt were tested with the use of a two-hybrid system utilizing the his3 gene as reporter gene. The coding region of both the wild type CKS1At and the mutated CKS1At.Q61 gene was cloned in frame with the GAL4 activation domain in the pGAD424 vector, resulting in the pGADCKS and pGADCKS.Q61 respectively. These vectors were used to cotransform the HF7c yeast cells with pGBTCDC2A or pGBTCDC2B. The pGBTCDC2A and pGBTCDC2B vectors encode for a fusion protein between the GAL4 DNA-binding domain and CDC2aAt or CDC2bAt respectively. The transformants were plated on selective medium in the absence of histidine to test the interactions between CKS1At and CKS1At.Q61 with CDC2aAt and CDC2bAt. Transformants were also streaked on medium containing 10, 20, 40, 80 or 160 mM 3-amino-1,2,4-triazole (3-AT). 3-AT acts as a competitive inhibitor of the his3 gene product.

[3] = biological target: T4, GAL4 DNA-binding domain-CDC2aAt fusion protein encoded by pGBTCDC2A (Arabidopsis thaliana, UniProt P04386 1-147; P24100 1-294); assay: yeast two-hybrid, his3 reporter, control with GAL4 activation domain only
T4 construct: Two-hybrid bait

T2 sequence (P24100 whole entry): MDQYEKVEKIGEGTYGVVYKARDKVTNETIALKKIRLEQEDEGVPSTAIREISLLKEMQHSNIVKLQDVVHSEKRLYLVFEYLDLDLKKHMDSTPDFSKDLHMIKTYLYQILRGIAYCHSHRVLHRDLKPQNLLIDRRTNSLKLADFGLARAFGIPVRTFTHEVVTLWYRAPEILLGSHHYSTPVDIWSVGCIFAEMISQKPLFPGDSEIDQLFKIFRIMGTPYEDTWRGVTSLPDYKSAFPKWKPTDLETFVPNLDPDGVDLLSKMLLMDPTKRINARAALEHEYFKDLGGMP

B1: GAL4 activation domain fused to truncated CKS1At lacking the last 15 amino acids, encoded by pGADCKSQ (other, not shown: large carriers)
chain: MGQIQYSEKYFDDTFEYRHVVLPPEVAKLLPKNRLLSENEWRAIGVQQSRGWVHYAVHRPEPHIMLFRRPLN
notes: Tyr73 codon mutated to a stop codon, deleting the last 15 amino acids; also called pGADCDSQ; truncated CKS1At protein
binding result [1]: no binding

B2: CKS1At protein (CDK-associating subunit from Arabidopsis thaliana) (other)
chain: MGQIQYSEKYFDDTFEYRHVVLPPEVAKLLPKNRLLSENEWRAIGVQQSRGWVHYAVHRPEPHIMLFRRPLNYQQQQENQAQNMLVK
notes: also called wild type CKS1At
binding result (CDC2aAt protein): binds

B3: GAL4 activation domain-CKS1At.Q61 fusion protein encoded by pGADCKS.Q61 (other, not shown: large carriers; small tags and cut ends)
chain: MGQIQYSEKYFDDTFEYRHVVLPPEVAKLLPKNRLLSENEWRAIGVQQSRGWVHYAVHRPQPHIMLFRRPLNYQQQQENQAQNMLVK
notes: Two-hybrid prey with the E61 residue of CKS1At mutated into Q61; also called CKS1At mutant E61Q
binding result [2]: no binding

B4: GAL4 activation domain only (vector pGAD424) (other, UniProt P04386 768-881, looked up)
chain: ANFNQSGNIADSSLSFTFTNSSNGPNLITTQTNSQALSQPIASSNVHDNFMNNEITASKIDDGNNSKPLSPGWTDQTAYNAFGITTGMFNTTTMDDVYNYLFDDEDTPPNPKKE
notes: Negative control of the two-hybrid assay
binding result [3]: no binding
